Test results published in patent CN117264062A (SHANGHAI HRAIN BIOTECHNOLOGY CO LTD, dated 2023).

T1: 重组人Trop2-avi-his抗原蛋白 (recombinant human Trop2 extracellular domain with C-terminal avi-tag and 6×his-tag) (human, UniProt P09758 27-274)
T1 construct: The protein was coated unbiotinylated on the ELISA plate; A form biotinylated at the avi-tag was used for panning and for CAR staining; also called 重组人Trop2蛋白; Trop2蛋白
T1 sequence: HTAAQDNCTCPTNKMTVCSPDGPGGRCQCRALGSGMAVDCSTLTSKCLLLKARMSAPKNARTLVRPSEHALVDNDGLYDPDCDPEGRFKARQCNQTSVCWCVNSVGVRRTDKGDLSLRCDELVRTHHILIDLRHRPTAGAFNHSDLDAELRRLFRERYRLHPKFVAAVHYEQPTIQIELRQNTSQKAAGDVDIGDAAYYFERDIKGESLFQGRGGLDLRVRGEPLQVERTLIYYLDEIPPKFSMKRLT


Biological target: T1, 重组人Trop2-avi-his抗原蛋白 (recombinant human …)
Assay: ELISA: recombinant human Trop2 coated at 100 ng/well, scFv periplasmic extract, anti-HA HRP detection, OD450

Binder | binding result
L3G5 anti-human Trop2 scFv (scFv, V domains shown, Tested as an scFv in a periplasmic extract of TG1 (pComb3sc phagemid) and detected with anti-HA HRP) VH: QLQLQESGPGLLKPSETLSLICTVSGGSISSHYWSWIRQTPGKGLEWIGWIHSSGITNYNPSLMGRVTMSVDTSKNQFPLKVNSVTAADTAVYYCARGLRLTDDAFDIWGQGTMVTVSS VL: QSALTQPASVSGSPGQSITISCTGTSSDVGGYNYVSWYQQHPGKAPKLMIHDVSNRPSGVSNRFFGSKSGNTASLTISGLQAEDEADYYCSSYTSSNTLAFGGGTKLTVL | binds
L2C9 anti-human Trop2 scFv (scFv, V domains shown, Tested as an scFv in a periplasmic extract of TG1 (pComb3sc phagemid) and detected with anti-HA HRP) VH: EVQLLESGGGVVQPGMSLRVSCAASGFTFSNYGMHWVRQAPGKGLEWVGIIWSDGTYTYYGDSVQGRFTISRDNSENTLHLQMNSLRAEDTAVYYCAKSLTPLGGSFRIGDWGQGTLVTVSS VL: QSVLTQPPSVSGAPGQRVTISCTGSSSNIGAGYDVHWYQQLPGTAPKLLIYDNTNRPSGVPDRFSGSKSGTSASLAITGLQADDEGDYYCQSYDSRLNALVFGGGTKLTVL | binds
L2C8 anti-human Trop2 scFv (scFv, V domains shown, Tested as an scFv in a periplasmic extract of TG1 (pComb3sc phagemid) and detected with anti-HA HRP) VH: EVQLVESGGALVQRGGSLRLSCSASGFSVRNNYITWVRQAPGKGLEWVAIVFPGGSSYHADSVKGRFTISRDLSKNSVYLEMNSLREDDTGVYFCARDSGSPLWRGHFQYWGQGTTVTVSS VL: QSVLTQPPSVSGAPGQRVTISCTGSSANIGAGYDVHWYQQLPGTAPKLLIYDNNKRPSGIPDRFSGSNSGTSATLGITGLQTGDEADYYCGTWDTSLSAWVFGGGTRLTVL | binds
K2F5 anti-human Trop2 scFv (scFv, V domains shown, Tested as an scFv in a periplasmic extract of TG1 (pComb3sc phagemid) and detected with anti-HA HRP) VH: QVQLVQSGAEVKKPGESLTISCKSSGDNFSTNWIGWVRQMPGKGLEWMGIIYPGDSDSRYSPSFEGQVTISADKSISTAYLQWSSLKASDTAMYYCARYQGSTTPFDYWGQGTTVTVSS VL: not shown | binds
